Square brackets hold non-standard residues; d marks the D form. Ends that are not written are not given here. * marks the point of attachment. Benzoyl(3-OMe) = COc1cccc(C(=O)*)c1; Benzoyl(4-OMe) = COc1ccc(C(=O)*)cc1
Legend:
[1] = molecular target: MC receptor endogenous to Xenopus laevis melanophores (Xenopus laevis); test: cell-based or functional assay
[2] = molecular target: MC receptor endogenous to Xenopus laevis melanophores (Xenopus laevis); test: Schild plot; antagonism of α-MSH pigment dispersion in Xenopus melanophores (functional)
[3] = molecular target: MC receptor endogenous to Xenopus laevis melanophores (Xenopus laevis); test: Schild regression; suppression of α-MSH-induced pigment dispersion in Xenopus melanophores (functional)
[4] = molecular target: MC receptor endogenous to Xenopus laevis melanophores (Xenopus laevis); test: Schild plot regression analysis, frog melanophores (functional)

B1: SQW-13 (peptide)
peptide: {Benzoyl(3-OMe)}-RRIRPKA-NH2
SMILES: CC[C@H](C)[C@H](NC(=O)[C@H](CCCNC(=N)N)NC(=O)[C@H](CCCNC(=N)N)NC(=O)c1cccc(OC)c1)C(=O)N[C@@H](CCCNC(=N)N)C(=O)N1CCC[C@H]1C(=O)N[C@@H](CCCCN)C(=O)N[C@@H](C)C(N)=O
B1 was tested, and the MCR IC50 nM: antagonism of α-MSH (600 pM) darkening of frog melanophores [1] was 62 nM.

B2: SQW-12 (peptide)
peptide: {Benzoyl(3-OMe)}-RRIRPAL-NH2
SMILES: CC[C@H](C)[C@H](NC(=O)[C@H](CCCNC(=N)N)NC(=O)[C@H](CCCNC(=N)N)NC(=O)c1cccc(OC)c1)C(=O)N[C@@H](CCCNC(=N)N)C(=O)N1CCC[C@H]1C(=O)N[C@@H](C)C(=O)N[C@@H](CC(C)C)C(N)=O
Work on B2 yielded an MCR IC50 nM: antagonism of α-MSH (600 pM) darkening of frog melanophores [1] of 1600 nM.

{Benzoyl(4-OMe)}-RRIRPK[dL]-NH2 [p-anisoyl-[D-Leu^12] dynorphin A(6-12)-NH2] gave a Ki [2] of 27 nM, a pKi [2] of 7.57 and an MCR IC50 nM: antagonism of α-MSH (600 pM) darkening of frog melanophores [1] of 29 nM.

B3: human agouti-related protein fragment ARP-(83-132)-NH2 (peptide)
peptide: SSRRCVRLHESCLGQQVPCCDPCATCYCRFFNAFCYCRKLGTAMNPCSRT-NH2
modifications: disulfide (positions not given here); not fully specified (bridges); also: five disulfides among the 10 Cys, arrangement undetermined
In the case of B3, the Ki [3] is reported as 0.7 nM, the EC50 of α-MSH in frog melanophores in the presence of 30 nM ARP fragment [1] is reported as 19 nM and the Ki [4] is reported as 0.21 nM.
